# Data reported in PMC7577978, “IM30 IDPs form a membrane-protective carpet upon super-complex disassembly” (Communications Biology, 2020).
# Numbering of substitutions follows the chain as printed. Numbers in names are those of the source.
# B1: IM30_H3b-7 (amino acids 147-267), WT fragment of Synechocystis IM30 (domain or fragment, Synechocystis sp. PCC 6803, UniProt Q55707 147-267, looked up)
# chain: KANAELQQTLGGLGTSSATSAFERMENKVLDMEATSQAAGELAGFGIENQFAQLEASSGVEDELAALKASMAGGALPGTSAATPQLEAAPVDSSVPANNASQDDAVIDQELDDLRRRLNNL
# notes: IM30 (VIPP1) of Synechocystis sp; PCC 6803, amino acids 147-267 (helices 3b-7); also called helices 3b-7; intrinsically disordered C-terminus
# B2: IM30-CFP, CFP-labeled Synechocystis IM30 (natural protein, Synechocystis sp. PCC 6803, UniProt Q55707 1-267, looked up)
# chain: MGLFDRLGRVVRANLNDLVSKAEDPEKVLEQAVIDMQEDLVQLRQAVARTIAEEKRTEQRLNQDTQEAKKWEDRAKLALTNGEENLAREALARKKSLTDTAAAYQTQLAQQRTMSENLRRNLAALEAKISEAKTKKNMLQARAKAAKANAELQQTLGGLGTSSATSAFERMENKVLDMEATSQAAGELAGFGIENQFAQLEASSGVEDELAALKASMAGGALPGTSAATPQLEAAPVDSSVPANNASQDDAVIDQELDDLRRRLNNL
# notes: IM30 (VIPP1) of Synechocystis sp; PCC 6803; CFP fragment ligated into pRSET SynIM30 plasmid; purified as the His-tagged WT, so a His tag is likely present; also called CFP labeled IM30 monomers; source: E. coli, copurified with IM30-Venus after mixing cell pellets prior to cell lysis
# B3: inner membrane-associated protein of 30 kDa (IM30) wild type, N-terminally His-tagged, from Synechocystis sp. PCC 6803 (natural protein, UniProt Q55707 1-267, looked up)
# chain: B2 chain
# notes: IM30 (VIPP1) of Synechocystis sp; PCC 6803, full-length wild type; also called IM30 WT; VIPP1
# B4: IM30*_A227C (E83A, E84A, F168A, E169A, R170A, M171A, A227C) (natural protein, Synechocystis sp. PCC 6803, UniProt Q55707 1-267, looked up)
# chain: B2 chain with E83A, E84A, F168A, E169A, R170A, M171A, A227C
# notes: IM30 (VIPP1) of Synechocystis sp; PCC 6803, full length, the six alanine substitutions of IM30* and A227C in the linker between helix 6 and 7; also called A227C mutant of IM30*
# B5: IM30_A227C, A227C mutant of Synechocystis IM30 WT (natural protein, Synechocystis sp. PCC 6803, UniProt Q55707 1-267, looked up)
# chain: B2 chain with A227C
# notes: IM30 (VIPP1) of Synechocystis sp; PCC 6803, full length, with A227C; the methods print '(A272C)' in brackets after the name IM30_A227C, the results and the legend say A227C; also called A227C mutant of IM30 WT
# B6: IM30* (E83A, E84A, F168A, E169A, R170A, M171A), oligomerization-impaired mutant of Synechocystis IM30 (natural protein, Synechocystis sp. PCC 6803, UniProt Q55707 1-267, looked up)
# chain: B2 chain with E83A, E84A, F168A, E169A, R170A, M171A
# notes: IM30 (VIPP1) of Synechocystis sp; PCC 6803, full length, with six alanine substitutions made by site-directed mutagenesis; For SEC-SAXS the protein was heated to 50 °C, cooled slowly and buffer-exchanged by SEC before the run; also called IM30* dimers
# Legend:
# [1] = biological target: the molecule itself; experiment: SEC-MALS; Superdex 200 Increase 10/300 GL, 25 mM HEPES pH 7.5, 125 mM NaCl, 5% glycerol (w/w), RT
# [2] = biological target: T1, IM30-Venus, Venus-labeled Synechocystis IM30 (Synechocystis sp. PCC 6803, UniProt Q55707 1-267); experiment: FRET or BRET; 0.2 µM purified CFP/Venus labeled IM30 rings (copurified from mixed cell pellets, 27% CFP and 63% Venus w/w), excitation 420 nm, RT, with 0-1000 µM DOPG liposomes; conditions: both partners purified
# T1 construct: IM30 (VIPP1) of Synechocystis sp; PCC 6803; Venus fragment ligated into pRSET SynIM30 plasmid; purified as the His-tagged WT, so a His tag is likely present; also called Venus-labeled IM30 monomers; source: E. coli, copurified with IM30-CFP after mixing cell pellets prior to cell lysis
# T1 sequence (looked up): B2 chain
# [3] = biological target: the molecule itself; experiment: atomic force microscopy; ~0.5 µM IM30 WT adsorbed on mica, 10 mM Tris or HEPES, 150 mM KCl, 25 mM MgCl2, pH 7.6; imaged in buffer at ~30 °C
# [4] = biological target: the molecule itself; experiment: cross-linking; disulfide between Cys227 of two protomers; SDS-PAGE of the purified A227C mutants in absence of reducing agents
# [5] = biological target: the molecule itself; experiment: SEC; Superose12 10/300 GL, 20 mM HEPES pH 7.6 with 0, 50, 100, 150 or 300 mM NaCl, 8 °C; IM30* at suitable NaCl concentrations
binder,measurement,setting,value
B1,stoichiometry N,[1],2
B2,binding result,[2],binds
B3,binding result,[3],binds
B4,binding result,[4],binds
B5,binding result,[4],binds
B6,stoichiometry N,[5],2
